Experiments:
Experiment in all cases: peptide microarray (RepliTope)
[1] = molecular target: T1, SEQ ID NO 81 (human)
T1 construct: 15-mer of the human mortalin 348-450 array
T1 peptide: TRMPKVQQTVQDLFG
Experimental: (§1) Eighty nine (89) peptides (15 amino acids each) which were designed to each be shifted by one amino acid on the amino acid sequence ranging from position 348 to position 450 of human mortalin containing the amino acid sequence (SEQ ID NO: 56) ranging from the above position 381 to position 410, were chemically synthesized. Epitope mapping (RepliTope mapping) analysis was then carried out on them using a Tecon HS400 microarray analysis station (FIG. 14).
(§2) Background measurement was carried out for each microarray using an Axon Genepix scanner, so that it was confirmed that no signals were detected. All microarrays were treated using a blocking buffer (Pierce, Puperblock TBS #37536).
(§3) As anti-mortalin monoclonal antibodies having the cellular internalizing function, two antibodies 37-6 and 38-4 were prepared. Antibody 53-3 that is an anti-mortalin antibody not having the cellular internalizing function was prepared for comparison. Each antibody (30 μg/mL, 200 μL) diluted with a blocking buffer was applied to microarrays and then incubated. After the microarrays were washed 3 instances with a TBS buffer containing 0.1% T20, a fluorescence-labeled secondary antibody (1 μg/mL, anti-mouse-Dylight 649; Pierce #35515) was applied thereto and then incubated. Similarly, a control array subjected to incubation with only the secondary antibody was also treated so as to confirm no detected signals.

[2] = molecular target: T2, SEQ ID NO 70 (human)
T2 construct: 15-mer of the human mortalin 348-450 array; by its order peptide #49 (inferred)
T2 peptide: QQTVQDLFGRAPSKA
Experimental: as §1, §2, §3

[3] = molecular target: T3, SEQ ID NO 76 (human)
T3 construct: 15-mer of the human mortalin 348-450 array; by its order peptide #55 (inferred)
T3 peptide: LFGRAPSKAVNPDEA
Experimental: as §1, §2, §3

[4] = molecular target: T4, SEQ ID NO 72 (human)
T4 construct: 15-mer of the human mortalin 348-450 array; by its order peptide #51 (inferred)
T4 peptide: TVQDLFGRAPSKAVN
Experimental: as §1, §2, §3

[5] = molecular target: T5, SEQ ID NO 78 (human)
T5 construct: 15-mer of the human mortalin 348-450 array
T5 peptide: GEVILVGGMTRMPKV
Experimental: as §1, §2, §3

[6] = molecular target: T6, SEQ ID NO 71 (human)
T6 construct: 15-mer of the human mortalin 348-450 array; by its order peptide #50 (inferred)
T6 peptide: QTVQDLFGRAPSKAV
Experimental: as §1, §2, §3

[7] = molecular target: T7, SEQ ID NO 69 (human)
T7 construct: 15-mer of the human mortalin 348-450 array; by its order peptide #48 (inferred)
T7 peptide: VQQTVQDLFGRAPSK
Experimental: as §1, §2, §3

[8] = molecular target: T8, SEQ ID NO 74 (human)
T8 construct: 15-mer of the human mortalin 348-450 array; by its order peptide #53 (inferred)
T8 peptide: QDLFGRAPSKAVNPD
Experimental: as §1, §2, §3

[9] = molecular target: T9, SEQ ID NO 77 (human)
T9 construct: 15-mer of the human mortalin 348-450 array
T9 peptide: KAMQDAEVSKSDIGE
Experimental: as §1, §2, §3

[10] = molecular target: T10, SEQ ID NO 82 (human)
T10 construct: 15-mer of the human mortalin 348-450 array
T10 peptide: RMPKVQQTVQDLFGR
Experimental: as §1, §2, §3

[11] = molecular target: T11, SEQ ID NO 67 (human)
T11 construct: 15-mer of the human mortalin 348-450 array
T11 peptide: PKVQQTVQDLFGRAP
Experimental: as §1, §2, §3

[12] = molecular target: T12, SEQ ID NO 80 (human)
T12 construct: 15-mer of the human mortalin 348-450 array
T12 peptide: GMTRMPKVQQTVQDL
Experimental: as §1, §2, §3

[13] = molecular target: T13, SEQ ID NO 75 (human)
T13 construct: 15-mer of the human mortalin 348-450 array; by its order peptide #54 (inferred)
T13 peptide: DLFGRAPSKAVNPDE
Experimental: as §1, §2, §3

[14] = molecular target: T14, SEQ ID NO 68 (human)
T14 construct: 15-mer of the human mortalin 348-450 array; by its order peptide #47 (inferred)
T14 peptide: KVQQTVQDLFGRAPS
Experimental: as §1, §2, §3

[15] = molecular target: T15, SEQ ID NO 79 (human)
T15 construct: 15-mer of the human mortalin 348-450 array
T15 peptide: EVILVGGMTRMPKVQ
Experimental: as §1, §2, §3

[16] = molecular target: T16, SEQ ID NO 73 (human)
T16 construct: 15-mer of the human mortalin 348-450 array; by its order peptide #52 (inferred)
T16 peptide: VQDLFGRAPSKAVNP
Experimental: as §1, §2, §3

Measured: binding result

B1: anti-mortalin monoclonal antibody 52-3 (antibody, V domains shown)
VH: QVQLQQPGAELVKPGASVKLSCKASGYTFTSYWMHWVKQRPGQGLEWIGEINPSNGRTNYNEKFKSKATLTVDKSSSTAYMQLSSLTSEDSAVYYCARSRYYGSCYFDYWGQGTTLTVSS
VL: KIVMTQAAFSNPVTLGTSASISCRSSKSLLYSNGITYLYWYLQKPGQSPQLLIYQMSNLASGVPDRFSSSGSGTDFTLRISRVEAEDVGVYYCAQNLELPWTFGGGTKLEIK
notes: also called 52-3 antibody; non-internalization antibody
no binding (tested: 30 µg/mL): [1] | [2] | [3] | [4] | [5] | [6] | [7] | [8] | [9] | [10] | [11] | [12] | [13] | [14] | [15] | [16]

Source: US20100297664A1 (NATIONAL INSTITUTE OF ADVANCE INDUSTRIAL SCIENCE AND …, published 2010)
